Test results taken from paper PMC9010608.

Assays:
[1] = target: T1, Strep-HP1021 (orphan response regulator) (Helicobacter pylori 26695) (UniProt O25665); test: competition; settings: EMSA: 50 mM Tris-Cl, 250 mM KCl, 5 mM DTT, pH 7.0, 100 ng/uL sheared salmon sperm DNA, 37 C 30 min, 20 uL, 4% native PAGE, footprinting: 37 C 30 min
T1 sequence: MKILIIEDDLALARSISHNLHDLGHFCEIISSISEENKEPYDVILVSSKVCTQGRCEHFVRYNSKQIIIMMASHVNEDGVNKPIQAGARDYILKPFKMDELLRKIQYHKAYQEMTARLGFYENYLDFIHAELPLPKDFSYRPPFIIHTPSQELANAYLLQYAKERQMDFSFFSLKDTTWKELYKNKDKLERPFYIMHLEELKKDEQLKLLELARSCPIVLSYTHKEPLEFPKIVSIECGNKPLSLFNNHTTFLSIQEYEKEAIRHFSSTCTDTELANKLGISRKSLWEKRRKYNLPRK

[2] = target: T1, Strep-HP1021 (orphan response regulator) (Helicobacter pylori 26695); test: EMSA; settings: EMSA: 50 mM Tris-Cl, 250 mM KCl, 5 mM DTT, pH 7.0, 100 ng/uL sheared salmon sperm DNA, 37 C 30 min, 20 uL, 4% native PAGE, footprinting: 37 C 30 min

| Sequence | binding [1] | binding [2] |
| --- | --- | --- |
| CCATTATCACTCCAATTTTAATTCTCATTTTTTTGCGAGTTTTTGATCTTTATAAATTCTAAAGGGGTATTAAACGCACTTCTAATAACGATTTTATAGCGCTTCAAAGATATAACACTAATTCATTTTAAATAATAATTAGTTAATGAACGCTTCTGTTAATCTTAGTAAATCAAAACATTGCTACAATTACATCCAACCTTGATTTCGTTATGTCTTCAAGGAAAAACACTTTAAGAATAGGAGAATAAG (double strand) [PureA cold probe (unlabeled)] | binds | – |
| CCATTATCACTCCAATTTTAATTCTCATTTTTTTGCGAGTTTTTGATCTTTATAAATTCTAAAGGGGTATTAAACGCACTTCTAATAACGATTTTATAGCGCTTCAAAGATATAACACTAATTCATTTTAAATAATAATTAGTTAATGAACGCTTCTGTTAATCTTAGTAAATCAAAACATTGCTACAATTACATCCAACCTTGATTTCGTTATGTCTTCAAGGAAAAACACTTTAAGAATAGGAGAATAAG (double strand) [PureA (ureAB promoter, AF700 probe)] | – | binds |
| CCATTATCACTCCAATTTTAATTCTCATTTTTTTGCGAGTTTTTGATCTTTATAAATTCTAAAGGGGTATTAAACGCACTTCTAATAACGATTTTATAGCGCTTCAAAGATATAACACTAATTCATTTTAAATAATAATTAGTTAATGAACGCTTCCAGCCGGCTTCGTCAGTCGAAACATGTACGTGATTACATCCAACCTTGATTTCGTTATGTCTTCAAGGAAAAACACTTTAAGAATAGGAGAATAAG (double strand) [PureAmt (mutated ureAB promoter probe)] | – | no binding |
